Patent US7514534 (DYAX, dated 2009)

T1: MMP-26 catalytic domain, tagged with hexa-histidine (human, UniProt Q9NRE1 90-261)
T1 construct: the forward primer adds Met-Ala before it; also called MMP-26 target protein; Matrilysin-2; not shown: Also any N-terminal residues added by the forward primer (Met-Ala according to our card; the primers were not visible to me)
T1 sequence: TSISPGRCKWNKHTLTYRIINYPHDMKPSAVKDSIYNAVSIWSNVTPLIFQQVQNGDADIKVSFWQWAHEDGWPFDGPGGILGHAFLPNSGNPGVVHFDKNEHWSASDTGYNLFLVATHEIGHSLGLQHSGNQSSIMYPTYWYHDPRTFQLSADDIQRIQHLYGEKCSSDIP


What was measured:
MMP-3 = target: T2, MMP-3 (UniProt P08254 100-477, limits assumed); assay: cross-reactivity ELISA on coated MMP
T2 construct: also called stromelysin-1
T2 sequence (P08254 100-477 limits assumed): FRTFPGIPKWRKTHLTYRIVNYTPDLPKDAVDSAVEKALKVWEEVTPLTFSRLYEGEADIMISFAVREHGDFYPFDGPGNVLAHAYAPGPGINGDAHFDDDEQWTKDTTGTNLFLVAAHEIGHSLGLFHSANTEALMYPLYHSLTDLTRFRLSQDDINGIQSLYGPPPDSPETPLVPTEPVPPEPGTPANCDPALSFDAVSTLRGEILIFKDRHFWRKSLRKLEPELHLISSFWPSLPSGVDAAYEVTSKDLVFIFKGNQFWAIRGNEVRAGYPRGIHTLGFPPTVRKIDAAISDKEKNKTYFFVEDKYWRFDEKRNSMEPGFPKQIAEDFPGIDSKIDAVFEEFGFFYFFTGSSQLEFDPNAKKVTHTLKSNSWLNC
Method: (§1) Twenty-one of the reformatted MMP-26 antibodies were tested for MMP cross reactivity by ELISA analysis. MMP-3, MMP-7, MMP-9, and MMP-12 were coated onto Immulon 2 HB 96-well plates at a concentration of 1 μg/ml for 1 hour at 37° C. The plates were blocked with PBS-T containing 5% (w/v) nonfat dry milk for thirty minutes and subsequently washed with PBS-T. Each antibody was tested for reactivity to all of the above mentioned MMPs at a concentration of 2 μg/ml with an incubation time of 1 hour. Bound antibody was detected with an HRP-conjugated anti-human secondary antibody (Table 3, NT=not tested.).

MMP-9 = target: T3, MMP-9 (UniProt P14780 107-707, limits assumed); assay: cross-reactivity ELISA on coated MMP
T3 construct: also called gelatinase
T3 sequence (P14780 107-707 limits assumed): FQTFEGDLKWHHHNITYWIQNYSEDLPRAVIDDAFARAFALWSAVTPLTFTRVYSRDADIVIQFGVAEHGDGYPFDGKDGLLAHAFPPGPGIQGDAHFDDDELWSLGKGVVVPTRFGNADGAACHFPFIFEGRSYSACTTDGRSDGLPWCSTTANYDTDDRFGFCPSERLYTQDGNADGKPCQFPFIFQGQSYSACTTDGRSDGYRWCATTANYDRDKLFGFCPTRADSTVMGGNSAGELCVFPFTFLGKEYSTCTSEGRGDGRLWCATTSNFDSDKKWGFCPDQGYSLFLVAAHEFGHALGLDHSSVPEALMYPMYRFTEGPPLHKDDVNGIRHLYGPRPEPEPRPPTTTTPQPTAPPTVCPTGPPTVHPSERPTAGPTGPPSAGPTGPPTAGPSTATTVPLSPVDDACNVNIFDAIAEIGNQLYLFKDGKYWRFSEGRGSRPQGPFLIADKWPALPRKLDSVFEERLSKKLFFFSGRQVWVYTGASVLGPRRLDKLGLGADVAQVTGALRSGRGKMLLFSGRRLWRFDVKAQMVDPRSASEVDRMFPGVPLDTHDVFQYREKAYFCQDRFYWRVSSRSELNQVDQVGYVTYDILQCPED
Method: as §1

[1] = target: T1, MMP-26 catalytic domain, tagged with …; assay: bead-based ELISA, MMP-26 on nickel beads, IgG4 culture supernatant
Method: Reformatted and expressed full-length MMP-26 binding IgG4 antibodies were tested for specificity in a bead-based ELISA. Approximately 1.25 μg of MMP-26 protein was bound to nickel-coated magnetic beads (Novagen) which had been pre-blocked with phosphate buffered saline containing 5% (w/v) nonfat dry milk and 0.05% (v/v) Tween-20. The beads were washed in phosphate buffered saline containing 0.05% (v/v) Tween-20 (PBS-T) and 100 uls of unpurified cell culture supernatant containing transiently produced MMP-26-binding antibodies was added and incubated on a rotator for sixty minutes. The beads were washed with PBS-T and MMP-26-binding antibodies were detected with an HRP-conjugated anti-human secondary antibody. Data is expressed in fold over background where background consists of beads, blocking agent, and culture supernatant containing target antibody (Table 2; in this table, Results shown as fold over background (F>B) where background consists of beads, blocking agent, and culture supernatant).

| Binder | binding result (MMP-3) | binding result (MMP-9) | F > B (fold over background) [1] [fold over background] |
| --- | --- | --- | --- |
| A12 (antibody, human IgG4, V domains shown, whole human IgG4) VH: EVQLLESGGGLVQPGGSLRLSCAASGFTFSAYWMDWVRQAPGKGLEWVSVIYPSGGSTNYADSVKGRFTISRDNSKNTLYLQMNSLRAEDTAVYYCAREGIAAAAPMDVWGKGTTVTVSS VL: DIQMTQSPGTLSLSPGERATLSCRASQSVSRSYLGWYQQKPGQAPRLLIYGASNRATGIPDRFSGSGSGTDFTLTISRLEPEDFAVYYCQQYGISPLTFGPGTKVDIKR | no binding (tested: 2 µg/ml) | no binding (tested: 2 µg/ml) | 1.8 |
| B10 (antibody, human IgG4, V domains shown, whole human IgG4) VH: EVQLLESGGGLVQPGGSLRLSCAASGFTFSSYAMMWVRQAPGKGLEWVSWIVPSGGTTFYADSVKGRFTISRDNSKNTLYLQMNSLRAEDTAVYYCARGLYRWGQGTLVTVSSASTKGPSVFP VL: DIQMTQSPSSLSASVGDRVTIACRTSQNVNRYLNWYQHKLGQAPKLLIYGATILQSGVPSRFRGSGSGTDFILTITNLQPEDFAVYYCQQTYSPPLTFGQGTKAEFKGTVAAPSV | – | no binding (tested: 2 µg/ml) | 2.7 |
| B01 (antibody, human IgG4, V domains shown, whole human IgG4) VH: EVQLLESGGGLVQPGGSLRLSCAASGFTFSTYDMLWVRQAPGKGLEWVSSISPSGGSTSYADSVKGRFTISRDNSKNTLYLQLNSLRAEDTAVYYCAREKASDLSGTYSEALDHWGQGTLVTVSS VL: DIQMTQSPGTLSLSPGERATLSCRASQSVSSSYFAWYQQKPGQAPRLLIYDASSRATGIPDRFSGSGSGTDFTLTISRLEPEDFAVYYCQQYGSSPPMYTFGQGTKLEIKR | no binding (tested: 2 µg/ml) | no binding (tested: 2 µg/ml) | 2.3 |
| B08 (antibody, human IgG4, V domains shown, whole human IgG4) VH: EVQLLESGGGLVQPGGSLRLSCAASGFTFSRYMMNWVRQAPGKGLEWVSVIWSSGGKTLYADSVKGRFTISRDNSKNTLYLQMKSLRAEDTAVYYCARGGYNNYYYSMDVWGQGTTVTVSS VL: QSELTQPHSVSGSPGKTVTISCTRSSGSIAGNYVQWYQQRPGSSPTTVIYEDNKRPSGVPDRFSGSIDSSSNSASLIISGLKTEDEADYYCHSYDTSNQVFGGGTKLTVLG | no binding (tested: 2 µg/ml) | no binding (tested: 2 µg/ml) | 3 |
| H6-orig (antibody, human IgG4, V domains shown, whole human IgG4) VH: EVQLLESGGGLVQPGGSLRLSCAASGFTFSQYWMNWVRQAPGKGLEWVSGIGPSGGITYYADSVKGRFTISRDNSKNTLYLQMNSLRAEDTAVYYCARGEEDGYNSDYWGQGTLVTVSS VL: QSELTQPPSASGSPGQSVTISCTGTSSDVGAYNYVSWYQQHPGKAPKLIIYEVNKRPSGVPDRFSASKSGNTASLTVSGLQAEDEADYYCNSYAGSNSLIFGGGTKLTVLG | no binding (tested: 2 µg/ml) | no binding (tested: 2 µg/ml) | – |
| A11 (antibody, human IgG4, V domains shown, whole human IgG4; the VHC entry has one unread residue (printed z, K75z)) VH: EVQLLESGGGLVQPGGSLRLSCAASGFTFSWYTMMWVRQAPGKGLEWVSRISPSGGHTLYADSVKGRFTISRDNSZNTLYLQMNSLRAEDTAVYYCARDTWDDYYDSSGYYNDFDYWGQGTLVTVSS VL: QSALTQPPSVSLAPGQTARITCGGNNIGTKSVHWYQQKPGQAPVLVVYDDSDRPSGIPERFSGSNSGNTATLTISRVEAGDEADYYCQVWDSGSDHQVFGGGTKLTVLG | no binding (tested: 2 µg/ml) | no binding (tested: 2 µg/ml) | 1.7 |
| C12 (antibody, V domains shown, whole human IgG4) VH: EVQLLESGGGLVQPGGSLRLSCAASGFTFSAYNMMWVRQAPGKGLEWVSRIYPSGGYTLYADSVKGRFTISRDNSKNTLYLQMNSLRAEDTAVYYCARQKLMIRAVRPFDYWGQGTLVTVSS VL: QSELTQPPSVSVSPAQTASITCSGDKLGDKYACWYQQKPGQSPVLVIYEDTKRPSGIPERFSGSNSGNTATLTISGTQVMDEADYYCQVWDSSTAVFGGGTKLTVLG | – | no binding (tested: 2 µg/ml) | 1.8 |
| B04 (antibody, human IgG4, V domains shown, whole human IgG4) VH: EVQLLESGGGLVQPGGSLRLSCAASGFTFSFYWMMWVRQAPGKGLEWVSGISSSGGFTKYADSVKGRFTISRDNSKNTLYLQMNSLRAEDTAVYYCARETSRRAFDIWGQGTMVTVSS VL: DIQMTQSPSSVSASVGDRVTITCRASQGISKSLAWYQQKPGKAPKLLVYGAFSLESGVPSRFSGTGAGTDFILTISRLQPEDFATYYCQQANSFPLTFGGGTKVEIKR | no binding (tested: 2 µg/ml) | no binding (tested: 2 µg/ml) | – |
| A01 (antibody, human IgG4, V domains shown, whole human IgG4) VH: EVQLLESGGGLVQPGGSLRLSCAASGFTFSAYNMFWVRQAPGKGLEWVSGIGSSGGIAPYADSVKGRFTISRDNSKNTLYLQMNSLRAEDTAVYYCARAAYEVENWFDPWGQGTLVTVSS VL: DIQMTQSPGTLSLSPGERATLSCRASQIVRSTYLAWYQQKPGQAPRLLIYGTSSRATGVPDRFSGSGSGTDFTLTISGLEPEDFALYYCQRYGDSPPITFGQGTRLEITR | no binding (tested: 2 µg/ml) | no binding (tested: 2 µg/ml) | 3.3 |
| B06 (antibody, human IgG4, V domains shown, whole human IgG4) VH: EVQLLESGGGLVQPGGSLRLSCAASGFTFSQYFMKWVRQAPGKGLEWVSSISPSGGLTQYADSVKGRFTISRDNSKNTLYLQMNSLRAEDTAVYYCARGGIEAPGSPSDYWGQGTLVTVSS VL: DIQMTQSPSFLSASVGDRVTITCRASQGISSYLAWYQQKPGKAPKLLIYAASTLQSGVPSRFSGSGSGTDFTLTISSLEPEDFATYYCQESYSTPFFTFGPGTKVDIRR | no binding (tested: 2 µg/ml) | no binding (tested: 2 µg/ml) | 2.1 |
| A10 (antibody, human IgG4, V domains shown, whole human IgG4) VH: EVQLLESGGGLVQPGGSLRLSCAASGFTFSAYRMFWVRQAPGKGLEWVSSIWPSGGTTSYADSVKGRFTISRDNSKNTLYLQMNSLRAEDTAVYYCARDRGYDSSGYFDYWGQGTLVTVSS VL: QSELTQPPSASGTPGQRVTISCSGGSSNIGSNYVSWYQQLPGTAPKLLIYNNNQRPSGVPDRFSGSKSGTSASLAISGLRSEDEADYYCAAWDDSLSSAVFGGGTQLTVLG | no binding (tested: 2 µg/ml) | no binding (tested: 2 µg/ml) | 1.84 |
| D6-orig (antibody, human IgG4, V domains shown, whole human IgG4) VH: EVQLLESGGGLVQPGGSLRLSCAASGFTFSMYSMRWVRQAPGKGLEWVSSIYPSGGSTEYADSVKGRFTISRDNSKNTLYLQMNSLRAEDTAVYYCAREGGENDYWGQGTLVTVSS VL: DIQMTQSPLSLSASVGDRVAITCRASQSIDTYLNWYQQKPGKAPKLLIYAASKLEDGVPSRFSGSGTGTDFTLTIRSLQPEDFASYFCQQSYSSPGITFGPGTKVEIKR | no binding (tested: 2 µg/ml) | – | – |
| B02 (antibody, human IgG4, V domains shown, whole human IgG4) VH: EVQLLESGGGLVQPGGSLRLSCAASGFTFSDYFMKWVRQAPGKGLEWVSSIYPSGGPTKYADSVKGRFTISRDNSKNTLYLQMNSLRAEDTAVYYCARERSSGWYGYYYYGMDVWGQGTTVTVSS VL: DIQMTQSPSSLSASVGDRVAITCRASQSIDTYLNWYQQKPGKAPKLLIYAASKLEDGVPSRFSGSGTGTDFTLTIRSLQPEDFASYFCQQSYSSPGITFGPGTKVEIKR | no binding (tested: 2 µg/ml) | no binding (tested: 2 µg/ml) | – |
| A1-orig (antibody, human IgG4, V domains shown, whole human IgG4) VH: EVQLLESGGGLVQPGGSLRLSCAASGFTFSYYRMSWVRQAPGKGLEWVSSIGPSGGDTLYADSVKGRFTISRDNSKNTLYLQMNSLRAEDTAVYYCARSFSSGPYYFDYWGQGTLVTVSS VL: QSVLTQPPSASGTPGQRVIISCSGSSSNIGSHYVHWYQQVPGTAPKLLIYRNGQRPSGVPDRFSGFKSGTSASLAISGLRSEDEANYYCATWDDSVLFGGGTTLTVLG | no binding (tested: 2 µg/ml) | – | – |
| B07 (antibody, human IgG4, V domains shown, whole human IgG4) VH: EVQLLESGGGLVQPGGSLRLSCAASGFTFSQYQMIWVRQAPGKGLEWVSVIVPSGGITNYADSVKGRFTISRDNSKNTLYLQMNSLRAEDTAVYYCARGGVEAVDSSSPDYWGQGTLVTVSS VL: DIQMTQSPATLSLSPGERATLSCRASQSVSSYLAWYQQKPGQAPRLLIYDASNRATGIPARFSGSGSGTDFTLTISSLEPEDFAVYYCQQRSNWPRTFGGGTKVEIKR | no binding (tested: 2 µg/ml) | no binding (tested: 2 µg/ml) | – |
